The values that follow come from US20100135997A1 (MEDGENE, published 2010).

Experiment [1] addresses T1, HLA-A*0201 loaded with the Carcinoembryonic antigen (CEA)-derived … peptide (biotin on the C-terminal biotinylation tag).
T1 construct: Soluble, biotinylated, immobilised on a streptavidin chip
Put plainly: Biacore SPR. In outline:
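pMHC complexes were immobilised in SPR flow cells through biotin-tag binding. Soluble ILT-like molecule was passed over the surfaces at constant flow rate and response recorded in RU for affinity and kinetic analysis.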

The target in experiment [2] is T1, HLA-A*0201 loaded with the …. Put plainly: Biacore SPR, biotinylated pMHC immobilised on streptavidin.

Substitutions are numbered along the chain they refer to.

B1: SEQ ID NO 107 (receptor)
chain: MGHLPKPTLWAEPGSVITMDQPVTLRCQGGQETQEYRLYREKKTAPWITRIPQELVKKGQFPIPSITWEHAGRYRCIGRSQTSQWSASSDPLELVVTGIYLAPTLSAQPSPVVNSGGNVTLQCDSQVAFDGFILCKEGEDEHPQCLNSQPHARGSSRAIFSVGPVSPSRRWWYRCYAYDSNSPYEWSLPSDLLELLVL
notes: mutated soluble two domain ILT-2
In experiment [1], B1 displayed a Kd of no more than 1000 nM and a koff of no more than 2 s⁻¹.

B2: SEQ ID NO 108 (receptor)
chain: B1 chain with M19L, D20G
notes: as for B1
For B2, in experiment [1], the Kd was no more than 1000 nM and the dissociation rate constant (koff) is no more than 2 s⁻¹.

B3: SEQ ID NO 60 (receptor)
chain: MGHLPKPTLWAEPGSVITMDQPVTLRCQGGQETQQYRLYREKKTAPWITRIPQELVKKGQFPIPSITWEHAGRYRCYYGSDTRQWSASSDPLELVVTGVYIKPTLSAQPSPVVNSGGNVTLQCDSQVAFDGFILCKEGEDDHPQCLNSQPHARGSSRAIFSVGPVSPSRRWRYRCYAYDSNSPYEWTRGSDLLELDVDG
notes: as for B1
In experiment [1], B3 came in with a Kd of no more than 1000 nM and a koff of no more than 2 s⁻¹.

B4: SEQ ID NO 109 (receptor)
chain: MHLPKPTLWAEPGSVITMDQPVTLRCQGGQETQEYRLYREKKTAPWITRIPQELVKKGQFPIPSITWEHAGRYRCYYGSDTSQWSASSDPLELVVTGVYIKPTLSAQPSPVVNSGGNVTLQCDSQVAFDGFILCKEGEDEHPQCLNSQPHARGSSRAIFSVGPVSPSRRWWYRCYAYDSNSPYEWSLPSDLLELDVDG
notes: as for B1
As to B4, in experiment [1], the dissociation constant Kd is no more than 1000 nM and the off-rate (koff) is no more than 2 s⁻¹.

B5: soluble truncated variant of the Wild-Type ILT-2 molecule (domains D1 and D2) (receptor)
chain: MGHLPKPTLWAEPGSVITQGSPVTLRCQGGQETQEYRLYREKKTAPWITRIPQELVKKGQFPIPSITWEHAGRYRCYYGSDTAGRSESSDPLELVVTGAYIKPTLSAQPSPVVNSGGNVTLQCDSQVAFDGFILCKEGEDEHPQCLNSQPHARGSSRAIFSVGPVSPSRRWWYRCYAYDSNSPYEWSLPSDLLELLVL
notes: the entry carries the N-terminal Met used for bacterial expression; also called soluble wild-type ILT-2; soluble variant of wild-type ILT-2
Regarding B5, in experiment [2], the equilibrium dissociation constant (Kd) is roughly 6000 nM and the off-rate constant (koff) amounted to 2.4 s⁻¹.

B6: SEQ ID NO 67 (receptor)
chain: MHLPKPTLWAEPGSVITMDQPVTLRCQGGQETQEYRLYREKKTAPWITRIPQELVKKGQFPIPSITWEHAGRYRCYYGSDTSQWSASSDPLELVVTGVYIKPTLSAQPSPVVNSGGNVTLQCDSQVAFDGFILCKEGEDEHPQCLNSQPHARGSSRAIFSVGPVSPSRRWWYRCYAYDSNSPYEWSLPSDLLELDVDGC
notes: as for B1
On to B6, for which, in experiment [1], the Kd is no more than 1000 nM and the koff is no more than 2 s⁻¹.
